The target in series [1] is T1, ∆^1-pyrroline-5-carboxylate (P5C) dehydrogenase (PruA) (Mycobacterium tuberculosis, UniProt O50443).
T1 construct: gene rocA
The series is described as follows: biochemical.

Another series concerns O=C(O)C1CCC=N1. The series is described as follows: purified protein. Particulars: NAD^+; pH 7.0; 25.0 °C.
Series [2] relates to NC(=O)c1ccc[n+]([C@@H]2O[C@H](COP(=O)([O-])OP(=O)(O)OC[C@H]3O[C@@H](n4cnc5c(N)ncnc54)[C@H](O)[C@@H]3O)[C@@H](O)[C@H]2O)c1. The series is described as follows: purified protein. To be noted: pH 7.0; 25.0 °C; varied: cofactor.

Here are results for two compounds from article PMC10537722, “Proline Dehydrogenase and Pyrroline 5 Carboxylate Dehydrogenase from Mycobacterium tuberculosis: Evidence for Substrate Channeling” (Pathogens, 2023).

T1 sequence (O50443 1-543): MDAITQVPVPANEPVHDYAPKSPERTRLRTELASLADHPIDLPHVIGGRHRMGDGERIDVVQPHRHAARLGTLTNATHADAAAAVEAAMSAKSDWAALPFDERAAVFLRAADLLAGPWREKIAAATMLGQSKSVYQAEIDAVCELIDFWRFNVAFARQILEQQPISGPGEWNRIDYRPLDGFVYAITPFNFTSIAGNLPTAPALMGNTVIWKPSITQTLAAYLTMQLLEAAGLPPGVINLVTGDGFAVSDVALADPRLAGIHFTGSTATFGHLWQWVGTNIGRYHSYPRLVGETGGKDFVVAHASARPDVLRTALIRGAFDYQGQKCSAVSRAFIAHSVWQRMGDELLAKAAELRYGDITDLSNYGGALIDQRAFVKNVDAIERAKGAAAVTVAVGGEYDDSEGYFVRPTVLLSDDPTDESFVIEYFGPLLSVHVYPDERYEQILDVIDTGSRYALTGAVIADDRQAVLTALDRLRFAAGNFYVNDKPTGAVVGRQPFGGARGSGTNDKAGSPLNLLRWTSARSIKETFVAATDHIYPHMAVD

By Ki is commonly meant a dissociation constant, usually derived from enzyme kinetics or from competition with a known ligand. Higher therefore signals lower affinity. `O=C(O)[C@@H]1CCCN1` [L-proline] came in with a Ki in series [1] of 6.7 mM.
One may read the Km as the concentration of substrate that gives half-maximal velocity. In general, kcat refers to the maximal rate divided by the concentration of active sites. Broadly, the kcat/Km is the second-order rate constant that governs catalysis at low substrate concentration. With “∆^1-pyrroline-5-carboxylate (P5C) dehydrogenase (PruA) (Mycobacterium tuberculosis H37Rv)”, in the series with O=C(O)C1CCC=N1, the Km came to 120 ± 0.02 µM, the kcat turned out to be 1.1 s⁻¹ and the kcat/Km came out at 8500 M⁻¹ s⁻¹. For the same compound, the Km in series [2] was 33 ± 4.3 µM.
